For two molecules, IL-6 abundance in supernatant of LPS-stimulated IL-37tg mouse splenocytes (ELISA) results are on record in US20190352390A1.

The target of the assay is IL-37 expressed by splenocytes of IL-37 transgenic (IL-37tg) mice (human), Q9NZH6. In words: cell-based or functional assay.
Sequence of IL-37 expressed by splenocytes of IL-37 transgenic (IL-37tg) mice (human), Q9NZH6 (Q9NZH6 whole entry): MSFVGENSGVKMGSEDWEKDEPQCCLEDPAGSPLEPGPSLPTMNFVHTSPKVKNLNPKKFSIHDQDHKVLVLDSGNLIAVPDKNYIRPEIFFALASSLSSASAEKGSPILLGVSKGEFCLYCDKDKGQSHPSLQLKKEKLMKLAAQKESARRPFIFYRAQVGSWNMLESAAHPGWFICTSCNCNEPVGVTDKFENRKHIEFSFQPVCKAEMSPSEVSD

B1: Antibody RF3 (antibody, V domains shown)
VL: DVVMTQTPLSLPVSLGDQASISCRSSQSLVHSNGNTYLHWYLQKPGQSPKLLIYIVSNRFSGVPDRFGGSGSGTDFTLKISRVEAEDLGVYFCSQSTHIPYTFGGGTKLEMK
VH: QVQLQQPGAELVRPGASVKLSCKASGYTFTNYWMNWWKQRPGQGLEWIGMIDPSDSETHYNQVFKDKATLTVDISSTTAYMHLSSLTSEDSAVYYCARDFGWGQGTLVTVSA
B1 came in with an IL-6 abundance in supernatant of LPS-stimulated IL-37tg mouse splenocytes (ELISA) of under 40%.

B2: Antibody RF1 (antibody, V domains shown)
VL: DVVMTQTPLSLPVSLGDQASMSCRSSQSLVHSNGDSYLHWYLQKPGQSPKLLIYKVSNRLSGVPDRFSGSGSGTDFTLKISRVEAEDLGIYFCSQSTHVPYTFGGGTKLEIK
VH: QVQLQQPGAELVKPGASVKMSCKASGYTFTNYWLHWVMQRPGQGLEWIGMIDPSDSFTTYNQKFKGKATLTVDTSSSTAFMQLSSLTSEDSAVYYCTTVDHWGRGTTLTVSS
Molecule B2 had an IL-6 abundance in supernatant of LPS-stimulated IL-37tg mouse splenocytes (ELISA) of under 40%.
